Data from US20100272723A1 (Xencor, published 2010).
Where a chain is given by its changes, count along the chain named. Names and notes keep the numbering of the source.

What was measured:
FcγRIIa - H131 = biological target: T1, FcγRIIa - H131 (human, UniProt P12318); experiment: Biacore SPR: IgG captured on protein A/G (CM5 chip), FcγR-His injected; KD from 1:1 group fit, plotted as -log(KD)
T1 construct: soluble His-tagged receptor; also called H131 FcγRIIa (FcγR-His)
T1 sequence (receptor chain, looked up): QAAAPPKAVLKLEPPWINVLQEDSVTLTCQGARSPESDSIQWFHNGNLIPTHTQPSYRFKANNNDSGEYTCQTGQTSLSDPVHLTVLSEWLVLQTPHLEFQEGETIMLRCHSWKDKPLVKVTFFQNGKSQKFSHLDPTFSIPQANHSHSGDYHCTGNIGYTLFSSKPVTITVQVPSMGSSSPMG
Description: (§1) Briefly, protein A/G was coupled to a flow cell of a CM5 chip. IgG was first diluted to 25 nM and immobilized to protein A/G channel to ˜1000 RUs. FcγR-His was serially diluted and injected at […] for 2 min followed by dissociation for 3 min. To determine KD the resulting sensorgrams are “group-fitted” using the 1:1 interaction model available in BlAevaluation software.

FcγRIIa - R131 = biological target: T2, FcγRIIa - R131 (human, UniProt P12318); experiment: as above
T2 construct: soluble His-tagged receptor; also called R131 FcγRIIa (FcγR-His)
T2 sequence (receptor chain, looked up): T1 sequence (receptor chain, looked up) with H134R
Description: as §1

[1] = biological target: T3, human V158 FcγRIIIa (FcγR-His) (human, UniProt P08637 17-208, limits assumed); experiment: Biacore SPR; IgG captured on protein A/G, FcγR-His injected; 1:1 model
T3 construct: Soluble His-tagged receptor injected as analyte in Biacore; not shown: His tag ('FcγR-His')
T3 sequence (P08637 17-208 F176V limits assumed): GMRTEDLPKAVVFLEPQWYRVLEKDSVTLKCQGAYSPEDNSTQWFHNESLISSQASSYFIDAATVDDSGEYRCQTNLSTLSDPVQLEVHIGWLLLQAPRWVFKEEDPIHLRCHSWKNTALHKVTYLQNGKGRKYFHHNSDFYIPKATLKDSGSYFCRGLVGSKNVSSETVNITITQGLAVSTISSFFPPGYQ
Description: as §1

[2] = biological target: T4, human F158 FcγRIIIa (FcγR-His) (human, UniProt P08637 17-208, limits assumed); experiment: as above
T4 construct: Soluble His-tagged receptor injected as analyte in Biacore; not shown: His tag ('FcγR-His')
T4 sequence (P08637 17-208 limits assumed): as the sequence (P08637 17-208 F176V limits assumed) above, with V160F counted along it
Description: as §1

human CD19 [3] = biological target: T5, human CD19 (human, UniProt P15391 20-556); experiment: DELFIA time-resolved fluorometry competition on Raji cells; competitor tracer is Eu-labeled anti-CD19 (H0L0)
T5 construct: also called B-cell surface antigen B4; B-cell antigen CD19
T5 sequence: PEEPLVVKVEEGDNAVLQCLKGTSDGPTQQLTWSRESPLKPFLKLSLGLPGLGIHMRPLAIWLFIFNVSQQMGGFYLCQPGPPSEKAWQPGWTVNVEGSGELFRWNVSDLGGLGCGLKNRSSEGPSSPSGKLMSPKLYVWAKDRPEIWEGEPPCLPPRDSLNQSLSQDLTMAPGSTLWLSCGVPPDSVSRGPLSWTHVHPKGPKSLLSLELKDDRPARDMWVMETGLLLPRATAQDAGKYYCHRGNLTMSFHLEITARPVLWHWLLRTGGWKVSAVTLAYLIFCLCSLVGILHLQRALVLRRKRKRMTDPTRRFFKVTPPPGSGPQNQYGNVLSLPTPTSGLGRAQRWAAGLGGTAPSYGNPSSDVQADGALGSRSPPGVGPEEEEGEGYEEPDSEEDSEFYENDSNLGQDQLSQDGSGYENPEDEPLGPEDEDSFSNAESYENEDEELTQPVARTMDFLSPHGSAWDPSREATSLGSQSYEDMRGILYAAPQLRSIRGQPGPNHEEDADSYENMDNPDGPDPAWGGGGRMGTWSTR
Description: Affinities of enhanced effector function anti-CD19 variants were determined by using the DELFIA® system (PerkinElmer Life Sciences) which is based on Time-Resolved Fluorometry (TRF). […] The assay is essentially applied as a competition assay for screening anti-CD19 antibodies of different affinities.

[4] = biological target: T3, human V158 FcγRIIIa (FcγR-His); experiment: Biacore SPR; IgG captured on protein A/G, FcγR-His injected; reference is 4G7 IgG1 (WT)
Description: as §1

human CD19 [5] = biological target: T5, human CD19; experiment: DELFIA competition on Raji cells: unlabeled antibody competes with Eu-labeled anti-CD19 for surface CD19 [lower panel]
human CD19 [6] = biological target: T5, human CD19; experiment: DELFIA competition on Raji cells: unlabeled antibody competes with Eu-labeled anti-CD19 for surface CD19 [upper panel]
human CD19 [7] = biological target: T5, human CD19; experiment: flow cytometry, binding to CD19 on RS4;11 cells, MFI against Log[Ab], nM
cynomolgus CD19 = biological target: T6, cynomolgus CD19 (cynomolgus (Macaca fascicularis), UniProt A0A2K5W8L9 20-557); experiment: flow cytometry on monkey blood lymphocytes (method for the murine antibody not detailed)
T6 construct: whole, on cells; also called CD19 from cynomolgus monkey (Macaca fascicularis)
T6 sequence: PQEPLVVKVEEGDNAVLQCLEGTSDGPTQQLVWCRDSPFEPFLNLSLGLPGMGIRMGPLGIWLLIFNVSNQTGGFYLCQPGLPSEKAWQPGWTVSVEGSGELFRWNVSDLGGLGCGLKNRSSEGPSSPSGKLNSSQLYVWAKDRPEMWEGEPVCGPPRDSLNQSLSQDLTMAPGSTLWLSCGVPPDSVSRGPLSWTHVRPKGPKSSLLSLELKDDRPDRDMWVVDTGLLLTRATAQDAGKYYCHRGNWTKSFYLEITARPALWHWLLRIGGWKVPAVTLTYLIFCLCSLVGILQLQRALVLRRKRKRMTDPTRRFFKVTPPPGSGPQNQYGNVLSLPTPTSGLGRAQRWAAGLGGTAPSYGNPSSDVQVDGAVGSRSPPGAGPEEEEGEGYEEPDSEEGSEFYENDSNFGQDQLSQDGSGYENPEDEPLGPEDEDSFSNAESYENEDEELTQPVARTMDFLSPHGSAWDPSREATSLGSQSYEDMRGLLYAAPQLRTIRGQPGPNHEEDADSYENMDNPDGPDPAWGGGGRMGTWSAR

rhesus CD19 = biological target: T7, rhesus CD19 (rhesus (Macaca mulatta), UniProt F7F486 20-557); experiment: as above
T7 construct: whole, on cells; also called CD19 from rhesus monkey (Macaca mulatta)
T7 sequence: T6 sequence

B1: 4G7 IgG1 (chimeric: murine 4G7 H0/L0 variable regions, human IgG1 and kappa constant regions) (antibody)
heavy: not shown
light: DIVMTQAAPSIPVTPGESVSISCRSSKSLLNSNGNTYLYWFLQRPGQSPQLLIYRMSNLASGVPDRFSGSGSGTAFTLRISRVEAEDVGVYYCMQHLEYPFTFGAGTKLELKRTVAAPSVFIFPPSDEQLKSGTASVVCLLNNFYPREAKVQWKVDNALQSGNSQESVTEQDSKDSTYSLSSTLTLSKADYEKHKVYACEVTHQGLSSPVTKSFNRGEC
notes: also called 4G7 IgG1 antibody; WT IgG1 antibody; copies: 2 + 2
binding result (FcγRIIa - H131): binds | binding result (FcγRIIa - R131): binds | Kd [1]: ~240 nM

B2: 4G7 Hybrid S239D/I332E (murine 4G7 H0/L0 variable regions, hybrid IgG1/IgG2 constant region with S239D/I332E) (antibody)
heavy: EVQLQQSGPELIKPGASVKMSCKASGYTFTSYVMHWVKQKPGQGLEWIGYINPYNDGTKYNEKFKGKATLTSDKSSSTAYMELSSLTSEDSAVYYCARGTYYYGSRVFDYWGQGTTLTVSSASTKGPSVFPLAPSSKSTSGGTAALGCLVKDYFPEPVTVSWNSGALTSGVHTFPAVLQSSGLYSLSSVVTVPSSSLGTQTYICNVNHKPSNTKVDKKVEPKSCDKTHTCPPCPAPELLGGPDVFLFPPKPKDTLMISRTPEVTCVVVDVSHEDPEVQFNWYVDGVEVHNAKTKPREEQFNSTFRVVSVLTVVHQDWLNGKEYKCKVSNKALPAPEEKTISKTKGQPREPQVYTLPPSREEMTKNQVSLTCLVKGFYPSDIAVEWESNGQPENNYKTTPPMLDSDGSFFLYSKLTVDKSRWQQGNVFSCSVMHEALHNHYTQKSLSLSPGK
light: B1 light
notes: also called effector function enhanced anti-CD19; enhanced effector function anti-CD19; copies: 2 + 2
binding result (FcγRIIa - H131): binds | binding result (FcγRIIa - R131): binds | Kd [1]: ~4.7 nM | Kd [2]: ~16.7 nM | EC50 (human CD19 [3]): 1.2 nM | affinity enhancement relative to WT [4]: ~50 fold

B3: H0L0 (antibody)
heavy chain: EVQLQQSGPELIKPGASVKMSCKASGYTFTSYVMHWVKQKPGQGLEWIGYINPYNDGTKYNEKFKGKATLTSDKSSSTAYMELSSLTSEDSAVYYCARGTYYYGSRVFDYWGQGTTLTVSS
light chain: DIVMTQAAPSIPVTPGESVSISCRSSKSLLNSNGNTYLYWFLQRPGQSPQLLIYRMSNLASGVPDRFSGSGSGTAFTLRISRVEAEDVGVYYCMQHLEYPFTFGAGTKLELK
notes: original 4G7 variable regions; also called 4G7 H0L0
IC50 (read off the curve) (human CD19 [5]): ~8 nM | IC50 (read off the curve) (human CD19 [6]): ~5 nM

B4: H4L0 (antibody, V domains shown)
VH: EVQLQQSGPEVKKPGTSVKVSCKASGYTFTSYVMHWVRQAPGKGLVWVSYINPYNDGTKYNESLKSRVTISSDKSISTAYLQMNSLRAEDTAVYYCARGTYYYGSRVFDYWGQGTLVTVSS
VL: B3 light chain
notes: also called 4G7 H4L0
IC50 (read off the curve) (human CD19 [5]): ~10 nM

B5: H3L3 (antibody, V domains shown)
VH: EVQLVESGGGLVQPGRSLRLSCAASGYTFTSYVMHWVRQMPGKGLEWMGYINPYNDGTKYNEKFQGRVTITSDKSTSTAYMELSRLRSDDTAVYYCARGTYYYGSRVFDYWGQGTLVTVSS
VL: DIVMTQSPATLSVSPGERATISCRSSKSLLNSNGNTYLYWFLQKPGQSPQLLIYRMSNLASGVPDRFSGSGSGTDFTLTISRVEAEDVGVYYCMQHLEYPFTFGAGTKLEIK
notes: also called 4G7 H3L3
IC50 (read off the curve) (human CD19 [5]): ~20 nM

B6: H4L3 (antibody, V domains shown)
VH: B4 VH
VL: B5 VL
notes: also called 4G7 H4L3
binding result (human CD19 [5]): binds

B7: 4G7 H1L1 Hybrid S239D/I332E (antibody, human IgG1, kappa, V domains shown)
VH: B5 VH with Q13K, R16G, R19K, M40A, M48I, T71S, T76I, R85S, D89E, V93M
VL: DIVMTQSPATLSLSPGERATLSCRSSKSLLNSNGNTYLYWFQQKPGQSPQLLIYRMSNLASGVPDRFSGSGSGTEFTLTISSLEPEDFAVYYCMQHLEYPFTFGAGTKLEIKR
notes: also called H1L1 mAb
EC50 (read off the curve) (human CD19 [7]): ~6 nM

B8: parental murine antibody of the anti-CD19 (4G7) (antibody, V domains shown)
VH: B3 heavy chain
VL: B3 light chain
notes: also called its parental murine antibody
binding result (cynomolgus CD19): no binding | binding result (rhesus CD19): no binding
